From patent US9315563B2, “Peptides that inhibit angiotensin converting enzyme and peptides with antioxidant activity purified from ovotransferrin and methods of producing and using the same” (The Governors of the University of Alberta, priority 2009, dated 2016) come the findings set out here.

This test is described as follows: ORAC-FL assay (oxygen radical absorbance capacity). The note with it: ovotransferrin hydrolysates. As for the experimental part:
Briefly, 80 mM AAPH and 200 nM fluorescein in 75 mM phosphate buffer at pH 7.4 were prepared for each experiment. For each run, 20 μL of antioxidant, and 80 μL of phosphate buffer (or 100 μL of Trolox standard solutions at final concentrations of 1 to 8 μM) were placed in wells of a 96-well microplate, followed by addition of 50 μL of the fluorescein solution. The mixture was preincubated for 15 min at 37° C. 50 μL of AAPH solution was added rapidly using a multichannel pipet. The microplate was immediately placed in a Fluoroskan Ascent microplate reader (Thermo Electron Corporation) with 485-P excitation and 538-P emission filters and the fluorescence recorded every minute for 100 min. All readings were recorded using Fluoroskan Ascent software. The area under the curve of fluorescence decay (AUC) was calculated using Graphpad prism software (trial version). Regression equations between AUC and antioxidant concentrations were calculated for all the samples. The ORAC value was calculated by dividing the slope of sample regression curve by the slope of Trolox regression curve. Final ORAC values were expressed as μmol of Trolox equivalent/mg of protein or peptide.

B1: Unhydrolyzed ovotransferrin: egg ovotransferrin, un-hydrolyzed parent protein (protein, UniProt P02789 20-705, looked up)
Ovotransferrin: APPKSVIRWCTISSPEEKKCNNLRDLTQQERISLTCVQKATYLDCIKAIANNEADAISLDGGQAFEAGLAPYKLKPIAAEVYEHTEGSTTSYYAVAVVKKGTEFTVNDLQGKTSCHTGLGRSAGWNIPIGTLLHRGAIEWEGIESGSVEQAVAKFFSASCVPGATIEQKLCRQCKGDPKTKCARNAPYSGYSGAFHCLKDGKGDVAFVKHTTVNENAPDQKDEYELLCLDGSRQPVDNYKTCNWARVAAHAVVARDDNKVEDIWSFLSKAQSDFGVDTKSDFHLFGPPGKKDPVLKDLLFKDSAIMLKRVPSLMDSQLYLGFEYYSAIQSMRKDQLTPSPRENRIQWCAVGKDEKSKCDRWSVVSNGDVECTVVDETKDCIIKIMKGEADAVALDGGLVYTAGVCGLVPVMAERYDDESQCSKTDERPASYFAVAVARKDSNVNWNNLKGKKSCHTAVGRTAGWVIPMGLIHNRTGTCNFDEYFSEGCAPGSPPNSRLCQLCQGSGGIPPEKCVASSHEKYFGYTGALRCLVEKGDVAFIQHSTVEENTGGKNKADWAKNLQMDDFELLCTDGRRANVMDYRECNLAEVPTHAVVVRPEKANKIRDLLERQEKRFGVNGSEKSKFMMFESQNKDLLFKDLTKCLFKVREGTTYKEFLGDKFYTVISSLKTCNPSDILQMCSFLEGK
Turning to B1, the ORAC was 0.21 ± 0.04 µmol/mg.
